Laboratory results taken from article PMC4208761, “Molecular Insights into the Interaction between Plasmodium falciparum Apical Membrane Antigen 1 and an Invasion-Inhibitory Peptide” (PLoS ONE, 2014).
Entries after “also recorded” stand apart in the source; their conditions may differ. No end group written: not given here.

T1: Domain I+II of 3D7 PfAMA1 (residue 104-442), immobilised for SPR (Plasmodium falciparum 3D7, UniProt Q7KQK5 104-442)
T1 sequence (looked up): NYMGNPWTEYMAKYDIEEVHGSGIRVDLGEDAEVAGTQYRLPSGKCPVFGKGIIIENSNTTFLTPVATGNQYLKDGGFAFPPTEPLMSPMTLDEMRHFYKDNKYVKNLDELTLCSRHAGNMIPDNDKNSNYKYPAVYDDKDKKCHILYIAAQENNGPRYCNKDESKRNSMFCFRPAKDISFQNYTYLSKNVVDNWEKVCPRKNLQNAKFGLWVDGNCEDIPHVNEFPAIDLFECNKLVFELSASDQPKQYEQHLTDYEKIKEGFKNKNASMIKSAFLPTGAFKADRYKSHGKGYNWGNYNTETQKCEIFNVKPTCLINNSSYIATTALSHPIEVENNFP

T2: Fractionally deuterated 3D7 PfAMA1 (residue 104-442), His6 tag cleaved, for NMR (Plasmodium falciparum 3D7, UniProt Q7KQK5 104-442, randomly fractionally deuterated (f-2H))
T2 sequence (looked up): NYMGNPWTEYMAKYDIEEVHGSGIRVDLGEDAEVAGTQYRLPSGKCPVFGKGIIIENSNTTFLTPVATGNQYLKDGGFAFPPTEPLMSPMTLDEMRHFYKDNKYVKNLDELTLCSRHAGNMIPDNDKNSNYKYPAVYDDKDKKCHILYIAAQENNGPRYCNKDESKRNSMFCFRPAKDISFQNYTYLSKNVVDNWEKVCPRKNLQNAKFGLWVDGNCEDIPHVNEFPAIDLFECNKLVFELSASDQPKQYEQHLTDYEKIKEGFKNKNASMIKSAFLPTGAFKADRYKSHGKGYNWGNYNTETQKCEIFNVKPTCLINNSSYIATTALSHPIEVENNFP


Target: T1, Domain I+II of 3D7 PfAMA1 (residue …)
Experiment: SPR
Conditions: both partners purified

| Molecule | Kd [nM] |
| --- | --- |
| VFAEFLPLFSKFGSRMHILK [Native R1 peptide] | 110 |
| Ac-EFLPLFSKFGSRMH-NH2 (source: synthetic peptide (Mimotopes)) [R1_(4-17)] | 880 |
| Ac-FLPLFSKFGSR-NH2 (source: synthetic peptide (Mimotopes)) [R1_(5-15)] | 4600 |
| Ac-FLPLFSKFGSRM-NH2 (source: synthetic peptide (Mimotopes)) [R1_(5-16)] | 990 |

Target: T1, Domain I+II of 3D7 PfAMA1 (residue …)
Experiment: SPR
Conditions: both partners purified
Remark: another data set of the same source

| Molecule | Kd [µM] |
| --- | --- |
| Ac-FLPLFSKFGSRM-NH2 (source: synthetic peptide (Mimotopes)) [R1_(5-16)] | 1.8 |
| Ac-FLPLFSKFASRM-NH2 (source: synthetic peptide (Mimotopes)) [R1_(5-16) G13A] | 39 |
| Ac-FLPLFSKFGSAM-NH2 (source: synthetic peptide (Mimotopes)) [R1_(5-16) R15A] | > 100 |
| Ac-FLPLFSKFGARM-NH2 (source: synthetic peptide (Mimotopes)) [R1_(5-16) S14A] | 3.3 |
| Ac-FLPLFAKFGSRM-NH2 (source: synthetic peptide (Mimotopes)) [R1_(5-16) S10A] | 4.8 |
| Ac-FLPLFSKAGSRM-NH2 (source: synthetic peptide (Mimotopes)) [R1_(5-16) F12A] | 87 |
| Ac-FAPLFSKFGSRM-NH2 (source: synthetic peptide (Mimotopes)) [R1_(5-16) L6A] | 60 |
| Ac-FLPLFSAFGSRM-NH2 (also called Lys11Ala mutant; source: synthetic peptide (Mimotopes)) [R1_(5-16) K11A] | 27 |
| Ac-FLPLFSKFGSRA-NH2 (source: synthetic peptide (Mimotopes)) [R1_(5-16) M16A] | 2.7 |
| Ac-FLALFSKFGSRM-NH2 (source: synthetic peptide (Mimotopes)) [R1_(5-16) P7A] | 61 |

Target: T2, Fractionally deuterated 3D7 PfAMA1 …
Experiment: NMR titration
Conditions: both partners purified

| Molecule | stoichiometry N |
| --- | --- |
| VFAEFLPLFSKFGSRMHILK (not fully specified, source: E. coli BL21 (DE3), thioredoxin fusion from pET32a, purified (HisTrap, enterokinase cleavage, HiTrap QFF, RP-HPLC)) [Recombinant f-2H, u-13C, 15N-labelled R1 peptide] | 1 |

Target: T3, 3D7 PfAMA1_104–442 (Plasmodium falciparum, UniProt Q7KQK5)
T3 construct: His6 (TEV-cleavable); made in house
Experiment: SPR analysis of peptides binding to immobilized AMA1 (Biacore T200)
Conditions: SPR alanine scan, 1% DMSO in HBS-EP, 25°C
Experimental: A Biacore T200 biosensor instrument was used to measure the affinity of the interaction of peptides with 3D7 PfAMA1_104–442. AMA1 was immobilized onto a CM5 chip as described. Surface plasmon resonance (SPR) experiments were performed at 25°C using HBS-EP (10 mM HEPES, 150 mM NaCl, 3.4 mM EDTA, and 0.05% surfactant P20, pH 7.4) as the running buffer either with (alanine scanning mutagenesis study) or without (truncation study) 1% DMSO. All peptide samples were prepared in the appropriate running buffer. To generate the peptide binding data, peptide at concentrations ranging from 10 nM to 10 µM was injected over immobilized AMA1 at a constant flow rate of 60 µL/min for 1.5 min; peptide dissociation was monitored by flowing running buffer at 60 µL/min for 5 min. The surface was regenerated after each cycle by injecting glycine/HCl at pH 2.0. Sensorgrams were first zeroed on the y-axis and then x-aligned at the start of the injection. Bulk refractive index changes were eliminated by subtracting the reference flow cell responses. For kinetic analysis, ka and kd were determined from the processed data sets by globally fitting to a 1∶1 binding model. For rapidly associating/dissociating truncated peptides, K D was determined by fitting to a steady-state affinity model using a fixed Rmax that was calculated based on the response of R1_5–16.

| Molecule | fold reduction in affinity for AMA1 relative to R1_5–16 |
| --- | --- |
| Ac-FAPLFSKFGSRM-NH2 [R1_5–16 L6A] | 33 fold |
| Ac-FLALFSKFGSRM-NH2 [R1_5–16 P7A] | 35 fold |
| Ac-FLPLFAKFGSRM-NH2 [R1_5–16 S10A] | less than 3 fold |
| Ac-FLPLFSAFGSRM-NH2 [R1_5–16 K11A] | 15 fold |
| Ac-FLPLFSKAGSRM-NH2 [R1_5–16 F12A] | 48 fold |
| Ac-FLPLFSKFASRM-NH2 [R1_5–16 G13A] | 21 fold |
| Ac-FLPLFSKFGARM-NH2 [R1_5–16 S14A] | less than 3 fold |
| Ac-FLPLFSKFGSRA-NH2 [R1_5–16 M16A] | less than 3 fold |

Same assay, conditions: SPR truncation study, no DMSO, 25°C

| Molecule | reduction of binding affinity relative to native R1 [fold] |
| --- | --- |
| Ac-EFLPLFSKFGSRMH-NH2 [R1_4–17] | ~10 |
| Ac-FLPLFSKFGSRM-NH2 [R1_5–16] | ~10 |

Same assay, conditions: SPR truncation study, no DMSO, 25°C; relative to R1_5–16

| Molecule | further reduction in K D (affinity) on truncation of R1_5–16 to the 11-residue peptide [fold] |
| --- | --- |
| Ac-FLPLFSKFGSR-NH2 [R1_5–15] | ~5 |

Same assay, conditions: SPR, AMA1 immobilized on CM5 chip, HBS-EP running buffer pH 7.4, no DMSO, 25°C; kinetic 1:1 fit (native R1) or steady-state affinity fit; peptide 10 nM to 10 µM; No binding = no binding event up to 10 µM peptide

| Molecule | Equilibrium dissociation constant K D, truncated R1 |
| --- | --- |
| R1_1–11: truncated R1 analogue, N-terminally acetylated and C-terminally amidated (Ac-VFAEFLPLFSK-NH2) | no detectable binding; also recorded: No binding ^b |
| R1_5–14: 10-residue truncated R1 peptide, Arg15 deleted (Ac-FLPLFSKFGS-NH2) | abolished measurable binding; also recorded: No binding ^b |
| R1_11–20: truncated R1 analogue, N-terminally acetylated and C-terminally amidated (Ac-KFGSRMHILK-NH2) | No binding ^b |

Target: T1, Domain I+II of 3D7 PfAMA1 (residue …)
Experiment: SPR
Conditions: both partners purified
Remark: another data set of the same source

| Molecule | stoichiometry N |
| --- | --- |
| VFAEFLPLFSKFGSRMHILK [Native R1 peptide] | 1 |
